{
  "source": "the DeepSol protein solubility set",
  "data": [
    {"experiment": "soluble on expression in E. coli; label from the status in PepcDB or PDB records", "values": [
      {"sequence": "MKLNLITVSLATLVAAGAFPAHAGPQAHVVCGYHHTLGDDAIMMFGKANQAMWHDFFGNTHTDAVSTYQTLRAQPDTTCDNKADSSAYWAPSMKLPDGEIVNPAYQKTYYQSTNVAQYPLHPFPAGLELLAGDHHGTGPSSAITFLCANGKGYTNKVGEICGLRKAGDAVQFNIGIAFPNCWDGVNLKPTHSHNNAIYADHGKCSADYPVKIPTVNMNIAWVLPQISSLDTSKVELSMDPVMHGETREERWGSLYTAHADFMNGWTEDGAQFMTDLCMNQGLDCGTTVPYAYSKAEENTWVSSEDDKPHASVDTLYVQDDWTNGGRTQHPETLTLVKFKIPPLPANMDASLFKYRIRLFGGKTEANGADQIFFYPTSSDWHVSTVSWNNKPAINYRSDAVLYLDHSHEYRMVDVDKAVRKALAEGKTEISWYIGGDRQGNHYDFTPADSKQSLVLMLTGFKKTPELLEHHHHHH", "soluble on expression in E. coli": "not soluble"},
      {"sequence": "MKLPLFPLPICLLPEGYTQLRIFEPRYKRLVAESLKSGDGFGLCMTSEEVNTLYPIGTLVHIIDFETLSDGMLGVSIEGKQRFILGDISVESDGLKRAQINLIDNWPAAPIHENEHYLSDMLQNILKEYPKHLQQYQAAQFDDIAWVCQRWLEILPIRSAEKYTCINALDHQLTLDLLRTVIKLEHHHHHH", "soluble on expression in E. coli": "soluble"},
      {"sequence": "MKLSKDTIAILKNFASINSGILLSQGKFIMTRAVNGTTYAEANISDEIDFDVALYDLNSFLSILSLVSDDAEISMHTDGNIKIADTRSTVYWPAADKSTIVFPNKPIQFPVASVITEIKAEDLQQLLRVSRGLQIDTIAITNKDGKIVINGYNKVEDSGLTRPKYSLTLTDYDGSNNFNFVINMANMKIQPGNYKVMLWGAGDKVAAKFESSQVSYVIAMEADSTHDF", "soluble on expression in E. coli": "soluble"},
      {"sequence": "MKLSKDTTALLKNFATINSGIMLKSGQFIMTRAVNGTTYAEANISDVIDFDVAIYDLNGFLGILSLVNDDAEISQSEDGNIKIADARSTIFWPAADPSTVVAPNKPIPFPVASAVTEIKAEDLQQLLRVSRGLQIDTIAITVKEGKIVINGFNKVEDSALTRVKYSLTLGDYDGENTFNFIINMANMKMQPGNYKLLLWAKGKQGAAKFEGEHANYVVALEADSTHDF", "soluble on expression in E. coli": "soluble"},
      {"sequence": "MKLTLMFREYCSLCHKMRDELKPFQDEYGFGLEVVDVDENPVLEEKYNELVPVLLAGDEEICHWFLDEDRLKQFLER", "soluble on expression in E. coli": "not soluble"},
      {"sequence": "MKLTPEMLTGKSREHLVNLPTTHSSNHFLQTQAVQAFQALQQSAAKNGFNLQPASSFRDFERQQLIWNSKFKGERKVHDDAGKALDLNQLDDWQKCQAILRWSALLRLVVIIGERKWIFLILIFCHEVNLYNWSLGNMKKAATSLN", "soluble on expression in E. coli": "not soluble"},
      {"sequence": "MKLVVCSESDTAGQNIKDNLLTFADFEEKDVGEFKLYLSDEFYIAETKERLIYADHIDEKLAKYIDFEEILFASRHSSKDGRKIFTVHVSGNVGTADFGGKPYSLAKPSPQTMKNYVLALRERLDRKPEFEFTMEVTHHGPSEISKPSAFYEIGSTEEEWKDREAAEVVAEAMLDAIRAEKMDWNVAVGVGGTHYAPRQTEIMLTTTFTFGHNFAKYTFEHLTAEFLVKAVKLSEAEYIIIDEKSVNSAVKKIVNEAAEVAGVEVLKSKKVKKDFRLV", "soluble on expression in E. coli": "soluble"},
      {"sequence": "MKMDTGALTFQQKIYWLVKQIPLGRVATYGQIAALCGWPRHGRYVGYALYRVAPNSDIPWHRVVNAQGKISYAPQRRGTDELQRWRLAAEGIIFTAGLEHHHHHH", "soluble on expression in E. coli": "not soluble"},
      {"sequence": "MKNNIRFDLSDYLIHFFRDVNLETGSHIYLPEHCGFNNQHHACFIDAKYLLRLSLRSHKIFSSWSYRNGQRTVYGDSPVVCFTDMPIAAYLETGVRRLERNEKIGLYAIVLPKEQMFNYGARPVIYGLDQHNNARCSQGRNGERILDETALPLIEQYRYVTYVPGKIDWTHEREWRWPYRGDINNFLNHIKEYGIPENIESTPGFDFRSSEISGAGIIVPFAEDIPTVAHDILTLIDRGVIGRNTFKFIIAVESLQSWTQLSEPGALLSCINDNTFEFESFFDLSASKVKNYADSINDYVSELYSKKDFLNDSYAMEFGNAWVWIHDNQSQVVRALLQAGMIKVNKEGRYLLDVNLASVDWPLRRKEAFASHVAGWLKHRFDIEAGRYSVRGKDDYDAIPSYETPLKDQHPFYNHTVNVDW", "soluble on expression in E. coli": "not soluble"},
      {"sequence": "MKNNKVLVVVGPTAVGKTALGIDLAIKFNGEIISGDSQQVYQGLDIGTAKVTMAEQAQVPHHLIDVRKWTENFSVHDFVIEANQLIKEILDQGKVPIIVGGTGLYIQSLIEGYHLGGQENHEEMMKLREELSLLSDEELFAKVIKINPDISELNRRRAIRFLELQTFGSQDENLGSDYDFLLIGLNADRKVLYDRINQRVDQMMREGLLDEARTLYEQAPEVQAAKGIGYKEFFPYFSGDISLEEAVELVKRNSRRYAKRQLTWFKNRMSVEFEDVFSKNYPEPIFDKVTQFLNLEHHHHHH", "soluble on expression in E. coli": "not soluble"},
      {"sequence": "MKNPCNVIAIIGKPRDQQAIQTHKELYEWLTSEGYKVFIDDRLAAILDEIPQNHFASLVELGKNADLAIVVGGDGNMLGAARILSRFDVPVIGVNRGNLGFLTDLNPDDFQAALKAVLAGEYIEEERFLLEAEVHRHGQIKSHNAALNEAVLHPGQIAHMIEFEVYIDESFAFSLRADGLIVSTPTGSTAYSLSGGGPILSPSLNAISLVPMFPHTLSSRPLVVDGKRRIKLIVSPENRGTQEVSCDGQVSLPVSPGDEIHIYQSPNVLKLIHPKDYSYYHVLRNKLGWSSKLFMAGDPLEHHHHHH", "soluble on expression in E. coli": "soluble"},
      {"sequence": "MKNSLRIPRIIHQTWKTKDVPSPLDQLPQTWKEYLPNWEYILWTDEMNREFVCKHFPDFLEKYDTYPCNIQRADAIRYLLLKVYGGLYVDMDFECLENIEFLLEGSDFIVGKEPDWHAKRFGFEYIICNAFMASTPDNDFINFVCQRLINHSGGKVVNNGFDILDSTGPFLLTHAFNAFPHKEDIRILESKTIYPIGQWEVEKIKNNQIPKEMEERINQAHAIHYFFGTWFGKLEHHHHHH", "soluble on expression in E. coli": "not soluble"},
      {"sequence": "MKNSNFPAEVKDLTKRIRTVLMATAQMKEHEKDPEMLVDLQYSLANSYASTPELRRTWLESMAKIHARNGDLSEAAMCYIHIAALIAEYLKRKGYWKVEKICTASLLSEDTHPCDSNSLLTTPSGGSMFSMGWPAFLSITPNIKEEGAMKEDSGMQDTPYNENILVEQLYMCVEFLWKSERYELIADVNKPIIAVFEKQRDFKKLSDLYYDIHRSYLKVAEVVNSEKRLFGRYYRVAFYGQGFFEEEEGKEYIYKEPKLTGLSEISQRLLKLYADKFGADNVKIIQDSNKVNPKDLDPKYAYIQVTYVTPFFEEKEIEDRKTDFEMHHNINRFVFETPFTLSGKKHGGVAEQCKRRTILTTSHLFPYVKKRIQVISQSSTELNPIEVAIDEMSKKVSELNQLCTMEEVDMIRLQLKLQGSVSVKVNAGPMAYARAFLEETNAKKYPDNQVKLLKEIFRQFADACGQALDVNERLIKEDQLEYQEELRSHYKDMLSELSTVMNEQITGRDDLSKRGVDQTCTRVISKATPALPTVSISSSAEV", "soluble on expression in E. coli": "not soluble"},
      {"sequence": "MKNTELEQLINDKLNSAAISDYAPNGLQVEGKETVQKIVTGVTASQALLDEAVRLQADAVIVHHGYFWKGESPVIRGMKRRRLKTLLANDINLYGWHLPLDAHPELGNNAQLAALLGITVKGEIEPLVPWGELSMPVPGLELASWIEARLGRKPLWCGDTGPENVQRVAWCTGGGQSFIDSAARFGVDAFITGEVSEQTIHSAREQGLHFYAAGHHATERGGIRALSEWLNENTALDVTFIDIPNPALEHHHHHH", "soluble on expression in E. coli": "soluble"},
      {"sequence": "MKNTLKLPLLIGVAGGTSCGKSTIVERIIENLNANAKQSGRQIDIVHLSLHSFYRELSAEEKILAREGKFNFDHPDQINFDLLAETLQNMIDGKTVEIPKYDMITSSMNGTVTVEPAKVIIIEGILLLYDERVRKLLSTKLFVEKNAESRLRNRLATYIRDYHRAPLSIIRQYTEFVKPAFEEFCRPTKKYADVIIPRGADNHVATDLIAKNLQVRFKRQNNALFDFEL", "soluble on expression in E. coli": "not soluble"},
      {"sequence": "MKNVVIHQIVTLIFTEDQLRAYWQKQESTVPFAALTDAQYMKLAEDMLAHSSHSQLEQHLLGGRWRTKEEAEGAVLAEDESRDDIHVEIIDTNAPAEPRRRMLIDRVREILCPHCSFTFYVREAASERRDWTCPACGSGFCDLTP", "soluble on expression in E. coli": "not soluble"},
      {"sequence": "MKPKAITFDFWGTLFTEGEAFLEKVMPARYEILLDALSEAGHPVDEAEVREAYRQASLAFEEAWKAGEHMPVYERVARIFALLGAPHDPGLIALTARRLEESSLLAPLKPLPGVEVLKDLAKKYPLAIVSDTGMTPGRLLREHLKRQGLDVFQAFSFSDETGFVKPKPEAFRVALEALGVAPEEALHVGDLPQTDIKGAFGTGYPWAVQYVGLREVNGEVRPTAKVKDHRELLSLLT", "soluble on expression in E. coli": "soluble"},
      {"sequence": "MKPPPRRRAAPARYLGEVTGPATWSAREKRQLVRLLQARQGQPEPDATELARELRGRSEAEIRVFLQQLKGRVAREAIQKVHPGGLQGPRRREAQPPAPIEVWTDLAEKITGPPEEAVAVAFSQVLTIAATEPVTLLHSKPPKPTQARGKPLLLSAPGGQEDPAPEIPSSAPAAPSSAPRTPDPAPEKPSESSAGPSTEEDFAVDFEKIYKYLSSVSRSGRSPELSAAESAVVLDLLMSLPEELPLLPCTALVEHMTETYLRLTAPQPIPAGGSLGPAAEGVGAGSKAPEETPPATEKAEHSELKSPWQAAGICPLNPFLVPLELLGRAATPAR", "soluble on expression in E. coli": "soluble"},
      {"sequence": "MKPRVEILMSTYNGEKFLAEQLDSILAQTHQYFVLTVRDDGSKDGTPDILSRYAATDERITYCVQENRGVVGSFYWLLKNSSPLSNYVAFSDQDDVWLPNKLERALDVLSRYDETLPLLYCSRVEYVSAGLGHLDDSPMMVRPVCLNNALIQNVATGCTVVMNKAARDLLLEREWPPQVLMHDWWSYIVVSAFGKVVYDDFVSIKYRQHGGNVIGGTVSFVSDYRSRIINFLSRRRKGVFGCYDQAYSFWLGYKDELKGESRGIVSQFIESKRSFLSRLNYLTSSQRVYRHRFIDDVLVRLLILSNKYLEHHHHHH", "soluble on expression in E. coli": "not soluble"},
      {"sequence": "MKPSWDIFCSVVDNYGDAGVTWRLARQLVAEHDVQVRLWIDDLAAFVRLCPDADPCASQQLREGVSVCRWPADWVSSTVPDVVIEAFACRLPTSYTESMLQRSPRPLWLNLEYLSAEDWVSGCHGLPSPQMNGLKKFFFFPGFADTTGGLLRERNLIGQRQAFQQDKALQQAFLQELNVEPLAGARLISVFAYETPRLDSWLDALASDSRPTHLLVPEGRILADVQRWLGSEGQLHAGTVQASGALTVQVLPFIRQERYDQLLWSCDFNVVRGEDSFVRAQWAGRPMLWHIYQQEEDAHLPKLDAFLALYL", "soluble on expression in E. coli": "not soluble"},
      {"sequence": "MKPYQRQFIEFALNKQVLKFGEFTLKSGRKSPYFFNAGLFNTGRDLALLGRFYAEALVDSGIEFDLLFGPAYKGIPIATTTAVALAEHHDKDLPYCFNRKEAKDHGEGGSLVGSALQGRVMLVDDVITAGTAIRESMEIIQAHGATLAGVLISLDRQERGRGEISAIQEVERDYGCKVISIITLKDLIAYLEEKPDMAEHLAAVRAYREEFGV", "soluble on expression in E. coli": "soluble"},
      {"sequence": "MKQAIGFIDSGVGGLTVVREVLKQLPHEQVYYLGDTARCPYGPRDKEEVAKFTWEMTNFLVDRGIKMLVIACNTATAAALYDIREKLDIPVIGVIQPGSRAALKATRNNKIGVLGTLGTVESMAYPTALKGLNRRVEVDSLACPKFVSVVESGEYKSAIAKKVVAESLLPLKSTKIDTVILGCTHYPLLKPIIENFMGDGVAVINSGEETASEVSALLDYHNLLDATDEEIEHRFFTTGSTQIFKDIAKDWLNMPDMTVEHIKLGK", "soluble on expression in E. coli": "not soluble"}
    ]}
  ]
}
